The values below come from US20140221613A1.

A word on the koff: it is the first-order rate constant of dissociation. Lower therefore signals a long-lived complex. The Kd is the constant that tells how readily two partners part at equilibrium. A low value points to a tighter complex.

Assay [1] addresses IgG1 type humanized monoclonal antibody.
Assay [2] shares this target. This is another data set of the same source.
Assay [3] deals with human immunoglobulin IgG.
Assay [4] addresses human immunoglobulin IgG. The source holds these as a separate data set.
Assay [5] addresses IgG1 type humanized monoclonal antibody. The source holds these as a separate data set.
The target is the same in assay [6]. The assay can be described thus: SPR, IgG1 antibody immobilised, pH 7.4. (Surface plasmon resonance follows binding to a sensor surface in real time, without labels.)
For assay [7], the target named is Fc region of human immunoglobulin (human). The assay can be described thus: pH 4.5.
For assay [8] the target is unchanged. As to the kind of experiment: pH 7.4.
Assay [9] shares this target. As to the kind of experiment: SPR, Fc immobilised, neutral region.
Assay [10] has the same target. The assay can be described thus: SPR, Fc immobilised, weakly acidic region.

Where a chain is given by its changes, count along the chain named. Several values for one entry are separate records, joined by “and”; a condition that tells them apart may be missing. Identical values can stand only once.

B1: CGB19H-5D (designed binder)
chain: MAYYDPETGTWYSGGRDTYKLILNGKTLKGETTTEAVDAATAEKVFKHYANEHGVHGHWTYDPETKTFTVTERPEVIDASELTPAVDTYKLILNGKTLKGETTTEAVDAATAEKVFKHYANEHGVHGHWTYDPETKTFTVTERPEVIDASELTPAVDTYKLILNGKTLKGETTTEAVDAATAEKVFKHYANEHGVHGHWTYDPETKTFTVTERPEVIDASELTPAVDTYKLILNGKTLKGETTTEAVDAATAEKVFKHYANEHGVHGHWTYDPETKTFTVTERPEVIDASELTPAVDTYKLILNGKTLKGETTTEAVDAATAEKVFKHYANEHGVHGHWTYDPETKTFTVTERPEVIDASELTPAVGGGGSGGGGSGGGGSGGGGCHHHHHH
Turning to B1, the Binding Rate of Antibody after Running Buffer for 10 min (Binding portion) in assay [1] was 65.2% and 82.7%. Further, in [2], the Dissociation Rate of Antibody at an acidic pH, pH2 (30s) later was 63.4% and 81.8%; the Dissociation Rate of Antibody at an acidic pH, pH5 (30s) later was 5.6% and 2.1%.

B2: OXADac-PG14 (designed binder)
chain: MGAGTPVTAPLAGTIWKVLASEGQTVAAGEVLLILEAMKMETEIRAAQAGTVRGIAVKAGDAVAVGDTLMTLAGSGSDLYDDDDKGIITSLYKKAGSAAAPFTDTYKLILNGKTLKGETTTEAVDAATAEKVFKQYANEHGVDGHWTYDPETKTFTVTE
Regarding B2, in assay [3], the Ratio of the remaining amount of antibody by SPR sensor gram at pH 4.0 is 71% and the koff came out at 0.04 s⁻¹.

B3: OXADac-PG20 (designed binder)
chain: B2 chain with D125H, Q135H, D143H
On to B3, for which the Ratio of the remaining amount of antibody by SPR sensor gram at pH 4.0 in assay [3] came out at 58%.

B4: OXADac-PG07 (designed binder)
chain: B2 chain with H145E
With B4, in assay [3], the Ratio of the remaining amount of antibody by SPR sensor gram at pH 4.0 amounted to 93% and the koff was 0.00011 s⁻¹.

B5: OXADac-PG16 (designed binder)
chain: B2 chain with T120I, H145E
Consider B5, for which, in assay [3], the Ratio of the remaining amount of antibody by SPR sensor gram at pH 4.0 stood at 94% and the koff amounted to 0.00013 s⁻¹.

B6: OXADac-PG17 (designed binder)
chain: B2 chain with T114R, T120I, H145E
As to B6, in assay [3], the Ratio of the remaining amount of antibody by SPR sensor gram at pH 4.0 was 86% and the koff was determined as 0.032 s⁻¹.

B7: OXADac-PG13 (designed binder)
chain: B2 chain with D143H, H145E
As for B7, in assay [3], the Ratio of the remaining amount of antibody by SPR sensor gram at pH 4.0 came out at 64% and the koff turned out to be 0.06 s⁻¹.

B8: OXADac-PG19 (designed binder)
chain: B2 chain with Q135H, D143H
Consider B8, for which, in assay [3], the Ratio of the remaining amount of antibody by SPR sensor gram at pH 4.0 worked out at 38% and the koff is 0.27 s⁻¹. In [4], the increase of the dissociation rate constant against the wild-type came to 1000 fold and the percent of adsorbed IgG dissociated at pH 4.0 came out at 60%.

B9: OXADac-PG15 (designed binder)
chain: B2 chain with T114R, H145E
In the case of B9, in assay [3], the Ratio of the remaining amount of antibody by SPR sensor gram at pH 4.0 was determined as 90% and the koff turned out to be 0.00044 s⁻¹.

B10: CGB19H-3D (designed binder)
chain: MAYYDPETGTWYSGGRDTYKLILNGKTLKGETTTEAVDAATAEKVFKHYANEHGVHGHWTYDPETKTFTVTERPEVIDASELTPAVDTYKLILNGKTLKGETTTEAVDAATAEKVFKHYANEHGVHGHWTYDPETKTFTVTERPEVIDASELTPAVDTYKLILNGKTLKGETTTEAVDAATAEKVFKHYANEHGVHGHWTYDPETKTFTVTERPEVIDASELTPAVGGGGCHHHHHH
Consider B10, for which the Kd in [5] turned out to be 0.1 nM. In addition, the Binding Rate of Antibody after Running Buffer for 10 min (Binding portion) in assay [1] was 62.5% and 69.6%. In addition, in [2], the Dissociation Rate of Antibody at an acidic pH, pH2 (30s) later was 51.2% and 67.4%; the Dissociation Rate of Antibody at an acidic pH, pH3 (30s) later was 36.2% and 29.9%; the Dissociation Rate of Antibody at an acidic pH, pH5 (30s) later was 6.4% and 4.6%. Besides, in assay [6], the fold avidity improvement against M-PG19 stood at 190 fold and the fold difference of the dissociation rate constant against M-PG19 turned out to be 370 times.

B11: M-PG07 (designed binder)
chain: MDTYKLILNGKTLKGETTTEAVDAATAEKVFKQYANEHGVDGEWTYDPETKTFTVTE
Take B11: the Kd worked out at 230 nM in assay [7] and 290 nM in [8].

B12: M-PG19 (designed binder)
chain: B11 chain with Q33H, D41H, E43H
Regarding B12, the Kd is 19 nM in assay [5], 1000 nM in assay [7] and 43 nM in assay [8]. Further, the fold of avidity in the neutral region against M-PG01 in assay [9] came out at 11 times. The fold of affinity in the acidic region against M-PG01 in assay [10] was 0.6 times.

B13: CGB19H-4D (designed binder)
chain: MAYYDPETGTWYSGGRDTYKLILNGKTLKGETTTEAVDAATAEKVFKHYANEHGVHGHWTYDPETKTFTVTERPEVIDASELTPAVDTYKLILNGKTLKGETTTEAVDAATAEKVFKHYANEHGVHGHWTYDPETKTFTVTERPEVIDASELTPAVDTYKLILNGKTLKGETTTEAVDAATAEKVFKHYANEHGVHGHWTYDPETKTFTVTERPEVIDASELTPAVDTYKLILNGKTLKGETTTEAVDAATAEKVFKHYANEHGVHGHWTYDPETKTFTVTERPEVIDASELTPAVGGGGSGGGGSGGGGSGGGGCHHHHHH
On to B13, for which the Binding Rate of Antibody after Running Buffer for 10 min (Binding portion) in assay [1] was 59.4% and 77.8%. Moreover, in [2], the Dissociation Rate of Antibody at an acidic pH, pH2 (30s) later was 55.6% and 76.3%; the Dissociation Rate of Antibody at an acidic pH, pH3 (30s) later is 34.6% and 18.6%; the Dissociation Rate of Antibody at an acidic pH, pH5 (30s) later is 6.9% and 3.7%.

B14: CGB19H-1D (designed binder)
chain: MAYYDPETGTWYSGGRDTYKLILNGKTLKGETTTEAVDAATAEKVFKHYANEHGVHGHWTYDPETKTFTVTERPEVIDASELTPAVGGGGSGGGGSGGGGSGGGGCHHHHHH
The molecule B14 returned a Binding Rate of Antibody after Running Buffer for 10 min (Binding portion) in [1] of 52.6%. In [2], this molecule showed a Dissociation Rate of Antibody at an acidic pH, pH2 (30s) later of 52.7%; a Dissociation Rate of Antibody at an acidic pH, pH3 (30s) later of 35.1%; a Dissociation Rate of Antibody at an acidic pH, pH5 (30s) later of 7.1%.
